B1: BBSome-interacting protein 1 (Homo sapiens), A8MTZ0 (parent)
chain: MLKAAAKRPELSGKNTISNNSDMAEVKSMFREVLPKQGPLFVEDIMTMVLCKPKLLPLKSLTLEKLEKMHQAAQNTIRQQEMAEKDQRQITH
partner: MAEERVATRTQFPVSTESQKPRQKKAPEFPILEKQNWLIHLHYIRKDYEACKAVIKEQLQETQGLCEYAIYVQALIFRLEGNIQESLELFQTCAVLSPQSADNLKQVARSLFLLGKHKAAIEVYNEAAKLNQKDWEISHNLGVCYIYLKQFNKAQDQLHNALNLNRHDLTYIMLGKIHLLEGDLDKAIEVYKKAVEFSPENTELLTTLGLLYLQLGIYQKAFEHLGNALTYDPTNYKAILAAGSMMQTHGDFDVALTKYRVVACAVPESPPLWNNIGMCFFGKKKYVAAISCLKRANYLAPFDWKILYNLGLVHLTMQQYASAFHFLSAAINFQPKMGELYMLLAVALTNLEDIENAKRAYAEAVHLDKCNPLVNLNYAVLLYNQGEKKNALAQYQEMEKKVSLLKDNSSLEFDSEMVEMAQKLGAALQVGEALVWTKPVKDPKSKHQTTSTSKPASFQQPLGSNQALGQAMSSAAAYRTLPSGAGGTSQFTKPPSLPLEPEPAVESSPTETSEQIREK

The variants in the assay derive from B1. As to conditions: with bbs4_human BBS4, Q96RK4.
Consider MLKAAAKRPELSGKNTISNNSDMAEVKSMFREVLPKQGPLFVEDIMTMVLCKPKLLPLKELTLEKLEKMHQAAQNTIRQQEMAEKDQRQITH [S60E], for which the “effect of a mutation on the interaction” value is listed as “with no effect”.
For the variant MLKAAAKRPELSGKNTISNNSDMAEVKSMFREVLPKQGPLFVEDIMTMVLCKPKLLPLKSLTLEKLEKMHQAAQNTIRQQEMAEKDQKQITH [R88K], the “effect of a mutation on the interaction” value is on record as “with no effect”.
Under MLKAAAKRPELSGKNTISNNSDMKEVKSMFREVLPKQGPLFVEDIMTMVLCKPKLLPLKSLTLEKLEKMHQAAQNTIRQQEMAEKDQRQITH [A24K] stands “with no effect”.
For MLKAAAKRPELSGKNTISNNSDMEEVKSMFREVLPKQGPLFVEDIMTMVLCKPKLLPLKSLTLEKLEKMHQAAQNTIRQQEMAEKDQRQITH [A24E], the “effect of a mutation on the interaction” value is given as “with no effect”.
As for MLKAAAKRPELSGKNTISNNSDMAEVKSMFREVLPKQGPLFVEDIMTMVLCKPKLLPLKSLTLEKLEKMHQAAQNTIRQQEMAEKEQRQITH [D86E], the “effect of a mutation on the interaction” value is “with no effect”.
In the case of MLKAAAKAPELSGKNTISNNSDMAEVKSMFREVLPKQGPLFVEDIMTMVLCKPKLLPLKSLTLEKLEKMHQAAQNTIRQQEMAEKDQRQITH [R8A], the “effect of a mutation on the interaction” value was “with no effect”.
Under MLKAAAKRPELSGKNTISNNSDMAEVKSMFREVLPKQGPKFVEDIMTMVLCKPKLLPLKSLTLEKLEKMHQAAQNTIRQQEMAEKDQRQITH [L40K] stands “with no effect”; under MLKAAAKRPELSGKNTISNNSDMAEVKSMFREVLPKQGPLFVEDIMTMVLCKPKLLPLKSLTLEKLEKMHQAAQNTIRQQEMAAKDQRQITH [E84A], “with no effect”.
MLKAAAKRAELSGKNTISNNSDMAEVKSMFREVLPKQGPLFVEDIMTMVLCKPKLLPLKSLTLEKLEKMHQAAQNTIRQQEMAEKDQRQITH [P9A]: the “effect of a mutation on the interaction” value was “with no effect”.
MLKAAAKREELSGKNTISNNSDMAEVKSMFREVLPKQGPLFVEDIMTMVLCKPKLLPLKSLTLEKLEKMHQAAQNTIRQQEMAEKDQRQITH [P9E]: the “effect of a mutation on the interaction” value was “with no effect”.
Take MLKAAAKRPELSGKNTISNNSDMAEVKSMFREVLPKQGPLFVEDIMTMVECKPKLLPLKSLTLEKLEKMHQAAQNTIRQQEMAEKDQRQITH [L50E]: the “effect of a mutation on the interaction” value is “with no effect”.
Under MLKAAAKRPELSGKNTISNNSDMAEVKSMFREVLPKQGPLFVEDIMTMVLCKKKLLPLKSLTLEKLEKMHQAAQNTIRQQEMAEKDQRQITH [P53K] stands “with no effect”; under MLKAAAKRPELAGKNTISNNSDMAEVKSMFREVLPKQGPLFVEDIMTMVLCKPKLLPLKSLTLEKLEKMHQAAQNTIRQQEMAEKDQRQITH [S12A], “with no effect”.
Under MLKAAAKRPELEGKNTISNNSDMAEVKSMFREVLPKQGPLFVEDIMTMVLCKPKLLPLKSLTLEKLEKMHQAAQNTIRQQEMAEKDQRQITH [S12E] stands “with no effect”; under MLKAAAKRPELSKKNTISNNSDMAEVKSMFREVLPKQGPLFVEDIMTMVLCKPKLLPLKSLTLEKLEKMHQAAQNTIRQQEMAEKDQRQITH [G13K], “with no effect”; under MLKAAAKRPELSGKNTISNNSDMAEVKSMFREVLPKQGPLFVEDKMTMVLCKPKLLPLKSLTLEKLEKMHQAAQNTIRQQEMAEKDQRQITH [I45K], “with no effect”.
As to MLKAAAKRPELSGKNTISNNSDMAEVKSMFREVLPKQGKLFVEDIMTMVLCKPKLLPLKSLTLEKLEKMHQAAQNTIRQQEMAEKDQRQITH [P39K], the “effect of a mutation on the interaction” value was “with no effect”.
For the variant MLKAAAKRPELSGKNTISNNSDMAEVKSMFREVLPKQAPLFVEDIMTMVLCKPKLLPLKSLTLEKLEKMHQAAQNTIRQQEMAEKDQRQITH [G38A], the “effect of a mutation on the interaction” value is reported as “with no effect”.
Consider MLKAAAERPELSGKNTISNNSDMAEVKSMFREVLPKQGPLFVEDIMTMVLCKPKLLPLKSLTLEKLEKMHQAAQNTIRQQEMAEKDQRQITH [K7E], for which the “effect of a mutation on the interaction” value is on record as “with no effect”.
With MLKAAAKRPELSGKNTISNNSDMAEVKSMFREVLPKQGPLFVEDIMTMVLCKPKLLPLKSLTLEKLEKEHQAAQNTIRQQEMAEKDQRQITH [M69E], the “effect of a mutation on the interaction” value was “with no effect”.
For MLKAAAKRPELSGKNTISNNSDMAEVKSMFREVLPKQGPLFVEDIMTMVLCKPKLLPLASLTLEKLEKMHQAAQNTIRQQEMAEKDQRQITH [K59A], the “effect of a mutation on the interaction” value was “with no effect”.
Take MLKAAAKRPELSGKNTISNNSDMAEVKSMFREALPKQGPLFVEDIMTMVLCKPKLLPLKSLTLEKLEKMHQAAQNTIRQQEMAEKDQRQITH [V33A]: the “effect of a mutation on the interaction” value is reported as “with no effect”.
MLKAAAKRPELSGKNTISNNSDMAEVKSMFREVLPKQGPLFVEDIMTMVLCKPKLLPLKSLTLEKLEKMHQAEQNTIRQQEMAEKDQRQITH [A73E]: the “effect of a mutation on the interaction” value is listed as “with no effect”.
In the case of MLKAAAKRPELSGKNTISNNSDMAEKKSMFREVLPKQGPLFVEDIMTMVLCKPKLLPLKSLTLEKLEKMHQAAQNTIRQQEMAEKDQRQITH [V26K], the “effect of a mutation on the interaction” value is “with no effect”.
As to MLKAAAKRPELSGKNTISNNSDMAEVKSMFREVLPKQGPLFVEDIMAMVLCKPKLLPLKSLTLEKLEKMHQAAQNTIRQQEMAEKDQRQITH [T47A], the “effect of a mutation on the interaction” value was “with no effect”.
For MLKAAAKRPELSGKNTISNNSDMAEVKSMFREVEPKQGPLFVEDIMTMVLCKPKLLPLKSLTLEKLEKMHQAAQNTIRQQEMAEKDQRQITH [L34E], the “effect of a mutation on the interaction” value is “with no effect”.

The record behind these values is IntAct's records for PubMed 29039417.
